Positions count from the first letter of the chain named. Names and notes keep the numbering of the source.
Assays:
[1] = tested on: T1, Var97, a variant of D519VE665V-FVIII with the additional amino acid substitutions I371P, V374F, V559L, R562W and Q565E
T1 sequence: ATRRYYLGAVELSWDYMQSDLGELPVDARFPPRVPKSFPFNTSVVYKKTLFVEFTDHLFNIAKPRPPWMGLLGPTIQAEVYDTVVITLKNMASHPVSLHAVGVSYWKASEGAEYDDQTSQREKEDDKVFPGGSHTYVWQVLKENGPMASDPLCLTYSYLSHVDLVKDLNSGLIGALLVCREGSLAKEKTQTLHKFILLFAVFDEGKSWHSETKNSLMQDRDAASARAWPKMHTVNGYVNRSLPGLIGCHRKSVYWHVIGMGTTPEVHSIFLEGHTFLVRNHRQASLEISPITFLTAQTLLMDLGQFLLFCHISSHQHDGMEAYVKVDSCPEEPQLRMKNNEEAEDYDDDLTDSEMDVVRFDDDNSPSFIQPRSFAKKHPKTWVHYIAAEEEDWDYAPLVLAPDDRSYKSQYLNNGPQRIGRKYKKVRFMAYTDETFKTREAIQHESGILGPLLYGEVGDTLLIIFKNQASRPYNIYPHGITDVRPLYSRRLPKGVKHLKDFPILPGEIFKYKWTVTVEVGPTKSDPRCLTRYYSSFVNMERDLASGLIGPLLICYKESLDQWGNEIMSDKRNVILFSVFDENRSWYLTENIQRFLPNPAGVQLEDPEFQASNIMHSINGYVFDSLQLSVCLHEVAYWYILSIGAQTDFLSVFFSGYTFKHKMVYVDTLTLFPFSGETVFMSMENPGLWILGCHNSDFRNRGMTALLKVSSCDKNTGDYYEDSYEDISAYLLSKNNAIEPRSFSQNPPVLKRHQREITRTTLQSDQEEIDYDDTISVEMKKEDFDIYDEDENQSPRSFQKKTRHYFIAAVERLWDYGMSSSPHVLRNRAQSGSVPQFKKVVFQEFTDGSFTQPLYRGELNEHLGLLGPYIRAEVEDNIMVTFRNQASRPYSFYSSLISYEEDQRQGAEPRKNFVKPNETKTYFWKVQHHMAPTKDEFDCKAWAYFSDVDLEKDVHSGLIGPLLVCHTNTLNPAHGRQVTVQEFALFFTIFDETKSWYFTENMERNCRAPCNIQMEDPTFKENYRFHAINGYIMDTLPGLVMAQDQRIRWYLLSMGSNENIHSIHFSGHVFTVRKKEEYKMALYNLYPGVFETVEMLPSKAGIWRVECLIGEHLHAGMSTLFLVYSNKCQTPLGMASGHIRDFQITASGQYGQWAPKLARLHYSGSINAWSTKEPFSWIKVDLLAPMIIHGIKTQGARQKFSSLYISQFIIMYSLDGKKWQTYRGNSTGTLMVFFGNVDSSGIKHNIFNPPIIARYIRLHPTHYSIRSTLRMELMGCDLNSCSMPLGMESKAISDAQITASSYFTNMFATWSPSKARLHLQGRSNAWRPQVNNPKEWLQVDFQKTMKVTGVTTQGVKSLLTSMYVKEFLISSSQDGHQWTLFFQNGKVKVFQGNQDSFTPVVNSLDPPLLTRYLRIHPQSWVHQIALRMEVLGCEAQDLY

Var97-R336I = tested on: T2, Var97-R336I
T2 sequence: T1 sequence with R336I

[2] = target: T3, Factor IXa (activated Coagulation Factor IX) (human, UniProt P00740 47-191; P00740 227-461, limits assumed); experiment: FXase kinetic assay: thrombin-activated FVIII fixed at 10 pM, FIXa varied 0-10 nM, FXa generation read with S-2765 (functional affinity)
T3 construct: also called FIXa
Procedure: The function of the Var97 variant in its physiologic enzyme complex was examined using FXase kinetic assays. These FXase kinetic assays were performed in 10 mM HEPES pH 7.4, 150 mM NaCl, 5 mM CaCl2, 0.01% Tween 20, 0.01% BSA and 10 μM PL (40:40:20, v/v/v PS:PC:PE). In these FXase kinetic assays, purified FVIIIa proteins were generated by incubation with 20 nM thrombin. The FVIII level was held fixed at 10 pM and reacted with varying concentrations of FIXa (0-10 nM), or the FIXa level was held fixed at (100 pM) and the level of thrombin activated FVIIIa was varied (0-10 nM). FX (150 nM) was added to either types of reactions, and after 1 min., the FXase reactions were stopped by addition to EDTA. The amount of FXa generated in these reactions were measured using the S-2765 chromogenic substrate. FXa generation was then extrapolated from a standard curve relating FXa level to rates of chromogenic substrate cleavage. The data was fit to a standard Michaelis-Menten equation to derive kinetic constants.

T3 sequence (P00740 47-191 limits assumed, form in doubt, chain 1 of 2): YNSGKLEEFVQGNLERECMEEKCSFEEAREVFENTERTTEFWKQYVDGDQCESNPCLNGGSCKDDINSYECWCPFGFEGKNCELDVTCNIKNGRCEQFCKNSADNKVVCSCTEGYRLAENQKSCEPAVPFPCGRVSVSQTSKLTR
T3 sequence (P00740 227-461 limits assumed, form in doubt, chain 2 of 2): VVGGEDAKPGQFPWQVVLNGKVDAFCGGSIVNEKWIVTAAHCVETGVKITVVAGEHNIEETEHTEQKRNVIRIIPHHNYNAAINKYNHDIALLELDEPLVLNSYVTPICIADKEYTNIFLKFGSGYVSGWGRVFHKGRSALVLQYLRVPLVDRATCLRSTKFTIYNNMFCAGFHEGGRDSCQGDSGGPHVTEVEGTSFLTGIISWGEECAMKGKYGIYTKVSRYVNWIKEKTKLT

## Factor IXa (activated Coagulation Factor IX)
[1]
  proteolytic cleavage of FVIII by excess FIXa in a FXase reaction (SDS-PAGE, Coomassie Blue): the Var97 Factor VIII variant shows enhanced proteolytic cleavage by FIXa relative to one or both of BDD and D519VE665V variant FVIII
Var97-R336I
  proteolytic cleavage in the FIXa digestion assay (SDS-PAGE): proteolytic cleavage of Var97-R336I was markedly reduced as compared to Var97

B1: Var97, a variant of D519VE665V-FVIII with the additional amino acid substitutions I371P, V374F, V559L, R562W and Q565E (other)
chain: T1 sequence
notes: Purified from HKB11 cells; also called Var97 variant; Var97 Factor VIII variant
[2]
  fold binding affinity for FIXa over FVIII-BDD: ≥ 4 fold
